Values quoted from earlier work, collected in paper PMC6188814.

Molecular target: ALDH7A1 (Homo sapiens) (UniProt P49419)
Test: analytical ultracentrifugation

Kd: 16 µM
Substance: ALDH7A1 (from UniProt P49419)
